Reference: US20250171534A1 (D2M BIOTHERAPEUTICS, published 2025)
Positions count from the first letter of the chain named. Where two headings read alike, the source gives them in different places. Each block holds one binder with its values, some of them ahead of it.

Experiments:
[1] = target: T1, LILRB2-ECD-HIS (SinoBiological Cat #: 14132-H02H) (human, UniProt Q8N423 22-460); test: SPR (Carterra LSA), antibody captured, antigen injected;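 also: kd obtained from kinetic analysis of antibody binding to the antigen, with association and dissociation phases fitted in the instrument software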
T1 construct: Bought protein; also called monomeric antigen LILRB2-ECD-HIS; not shown: His tag
T1 sequence (Q8N423 other isoform, or with tags, fused parts or gaps H02H H02H): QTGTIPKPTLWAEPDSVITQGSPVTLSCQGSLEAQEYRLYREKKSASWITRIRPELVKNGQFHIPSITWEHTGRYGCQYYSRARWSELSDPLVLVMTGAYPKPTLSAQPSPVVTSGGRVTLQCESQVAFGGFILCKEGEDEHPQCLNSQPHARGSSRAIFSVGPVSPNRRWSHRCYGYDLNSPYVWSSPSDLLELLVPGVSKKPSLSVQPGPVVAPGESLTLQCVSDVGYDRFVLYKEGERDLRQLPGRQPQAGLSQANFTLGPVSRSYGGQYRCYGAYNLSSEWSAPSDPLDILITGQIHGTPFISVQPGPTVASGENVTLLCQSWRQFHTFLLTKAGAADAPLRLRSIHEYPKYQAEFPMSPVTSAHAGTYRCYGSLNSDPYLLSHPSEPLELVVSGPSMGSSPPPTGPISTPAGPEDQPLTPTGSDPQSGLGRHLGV

[2] = target: T2, LILRB1-ECD-HIS (SinoBiological Cat #: 16014-H02H) (human, UniProt Q8NHL6 24-461); test: as above
T2 construct: Bought protein; also called monomeric antigen LILRB1-ECD-HIS; not shown: His tag
T2 sequence (Q8NHL6 other isoform, or with tags, fused parts or gaps H02H H02H): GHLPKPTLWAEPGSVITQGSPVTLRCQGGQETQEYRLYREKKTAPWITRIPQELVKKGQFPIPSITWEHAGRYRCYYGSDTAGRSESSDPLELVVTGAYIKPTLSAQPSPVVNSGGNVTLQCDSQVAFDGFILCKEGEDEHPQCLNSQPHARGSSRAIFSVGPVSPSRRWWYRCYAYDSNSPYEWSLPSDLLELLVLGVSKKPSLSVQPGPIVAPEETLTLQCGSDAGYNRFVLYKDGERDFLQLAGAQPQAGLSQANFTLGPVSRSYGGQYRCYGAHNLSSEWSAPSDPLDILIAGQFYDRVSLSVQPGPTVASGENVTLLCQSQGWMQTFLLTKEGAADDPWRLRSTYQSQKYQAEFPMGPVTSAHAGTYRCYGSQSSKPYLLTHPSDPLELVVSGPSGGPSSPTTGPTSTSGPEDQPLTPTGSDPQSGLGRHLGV

[3] = target: T3, human LILRB2 expressed on cells (human, UniProt Q8N423 22-597); test: flow cytometry, CHO-LILRB2 cells
T3 construct: In 293T cells it was expressed from pCMV3-LILRB2-GFP; also called CHO-LILRB2; Jurkat-LILRB2
T3 sequence (Q8N423 other isoform, or with tags, fused parts or gaps limits assumed): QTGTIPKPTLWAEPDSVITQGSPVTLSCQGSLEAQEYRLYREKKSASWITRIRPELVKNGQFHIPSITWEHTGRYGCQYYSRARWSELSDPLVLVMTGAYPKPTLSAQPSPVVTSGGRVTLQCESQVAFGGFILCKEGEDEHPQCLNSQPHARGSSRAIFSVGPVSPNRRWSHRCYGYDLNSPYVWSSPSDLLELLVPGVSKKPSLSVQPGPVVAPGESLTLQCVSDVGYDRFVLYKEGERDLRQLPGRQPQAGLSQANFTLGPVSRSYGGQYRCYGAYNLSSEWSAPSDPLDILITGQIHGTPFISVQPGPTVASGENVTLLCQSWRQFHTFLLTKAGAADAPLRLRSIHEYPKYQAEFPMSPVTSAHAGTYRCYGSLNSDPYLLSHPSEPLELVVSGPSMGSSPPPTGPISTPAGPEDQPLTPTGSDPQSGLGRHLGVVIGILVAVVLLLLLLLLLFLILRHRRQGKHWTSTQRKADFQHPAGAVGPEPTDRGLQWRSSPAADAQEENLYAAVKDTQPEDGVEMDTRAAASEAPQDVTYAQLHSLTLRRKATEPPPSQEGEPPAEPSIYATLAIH

[4] = target: T4, human LILRB1 expressed on cells (human, UniProt Q8NHL6 24-650); test: flow cytometry, CHO-LILRB1 cells
T4 construct: In 293T cells it was expressed from pCMV3-LILRB1-GFP; also called CHO-LILRB1; Jurkat-LILRB1
T4 sequence (Q8NHL6 other isoform, or with tags, fused parts or gaps limits assumed): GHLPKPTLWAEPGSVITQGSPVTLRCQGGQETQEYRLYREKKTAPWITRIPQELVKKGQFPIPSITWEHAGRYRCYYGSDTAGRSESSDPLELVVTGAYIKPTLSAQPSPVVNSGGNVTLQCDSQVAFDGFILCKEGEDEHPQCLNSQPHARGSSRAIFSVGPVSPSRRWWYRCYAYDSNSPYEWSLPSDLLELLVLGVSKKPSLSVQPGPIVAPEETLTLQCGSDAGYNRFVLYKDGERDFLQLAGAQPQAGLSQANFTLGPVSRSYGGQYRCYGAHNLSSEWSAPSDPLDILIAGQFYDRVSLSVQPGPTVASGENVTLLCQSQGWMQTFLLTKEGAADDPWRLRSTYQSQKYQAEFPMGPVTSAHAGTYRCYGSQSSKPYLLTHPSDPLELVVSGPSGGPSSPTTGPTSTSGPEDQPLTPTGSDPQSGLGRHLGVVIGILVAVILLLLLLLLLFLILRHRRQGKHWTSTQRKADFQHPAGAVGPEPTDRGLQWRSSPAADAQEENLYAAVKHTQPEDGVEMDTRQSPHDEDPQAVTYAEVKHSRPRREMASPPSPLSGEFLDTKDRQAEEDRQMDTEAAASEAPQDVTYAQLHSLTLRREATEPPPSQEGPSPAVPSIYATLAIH

[5] = target: T3, human LILRB2 expressed on cells; test: flow cytometry, CHO-LILRB2 cells; remark: listed apart in the source
[6] = target: T2, LILRB1-ECD-HIS (SinoBiological Cat #: …); test: BLI (Gator), RB1-ECD-his
[7] = target: T4, human LILRB1 expressed on cells; test: flow cytometry, Jurkat-LILRB1 cells; blocked ligand: APC HLA-G trimer tetramer
[8] = target: T2, LILRB1-ECD-HIS (SinoBiological Cat #: …); test: SPR (Carterra), LILRB1-ECD-his
[9] = target: T3, human LILRB2 expressed on cells; test: flow cytometry, Jurkat-LILRB2 cells; blocked ligand: APC HLA-G monomer tetramer
[10] = target: T1, LILRB2-ECD-HIS (SinoBiological Cat #: …); test: BLI (Gator), RB2-ECD-his
[11] = target: T5, cynomolgus monkey putative LILRB2 (antigen of the Gator measurement) (cynomolgus monkey); test: BLI (Gator), cyno RB2-his
T5 construct: also called cynomolgus monkey LILRB2

[12] = target: T4, human LILRB1 expressed on cells; test: flow cytometry, Jurkat-LILRB1 cells; blocked ligand: APC HLA-G trimer tetramer; remark: listed apart in the source
[13] = target: T3, human LILRB2 expressed on cells; test: flow cytometry, Jurkat-LILRB2 cells
[14] = target: T4, human LILRB1 expressed on cells; test: flow cytometry, Jurkat-LILRB1 cells
[15] = target: T4, human LILRB1 expressed on cells; test: flow cytometry, Jurkat-LILRB1 cells; remark: listed apart in the source
[16] = target: T1, LILRB2-ECD-HIS (SinoBiological Cat #: …); test: SPR (Carterra), LILRB2-ECD-his
[17] = target: T3, human LILRB2 expressed on cells; test: flow cytometry, Jurkat-LILRB2 cells; remark: listed apart in the source
[18] = target: T6, cynomolgus (monkey) LILRB2 expressed on CHO cells (cynomolgus monkey); test: flow cytometry on CHO-cynoLILRB2 cells (CHO-cyno RB2), titrated antibody, labelled anti-human Fc, gMFI
T6 construct: whole, on cells; Putative orthologue; also called cynoLILRB2; cynoRB2

[19] = target: T6, cynomolgus (monkey) LILRB2 expressed on …; test: flow cytometry on CHO-cynoLILRB2 cells
[20] = target: T3, human LILRB2 expressed on cells; test: flow cytometry on CHO-LILRB2 cells, non-linear fit of the curves of FIG. 26B
[21] = target: T7, LILRB3 expressed on cells (human, UniProt O75022 24-631); test: flow cytometry on CHO-LILRB3 cells (CHO-RB3), titrated antibody, labelled anti-human Fc, gMFI
T7 construct: whole, on cells; Expressed with a GFP tag from the bought plasmid; also called human LILRB3; CHO-LILRB3

[22] = target: T3, human LILRB2 expressed on cells; test: flow cytometry on CHO-LILRB2 cells (CHO-RB2), titrated antibody, labelled anti-human Fc, gMFI
[23] = target: T4, human LILRB1 expressed on cells; test: flow cytometry on CHO-LILRB1 cells, non-linear fit of the curves of FIG. 26A
[24] = target: T8, LILRA1 expressed on cells (human, UniProt O75019 17-489); test: flow cytometry on CHO-LILRA1 cells, non-linear fit of the curves of FIG. 26E
T8 construct: whole, on cells; GFP-tagged; also called human LILRA1; CHO-LILRA1
T8 sequence (O75019 17-489): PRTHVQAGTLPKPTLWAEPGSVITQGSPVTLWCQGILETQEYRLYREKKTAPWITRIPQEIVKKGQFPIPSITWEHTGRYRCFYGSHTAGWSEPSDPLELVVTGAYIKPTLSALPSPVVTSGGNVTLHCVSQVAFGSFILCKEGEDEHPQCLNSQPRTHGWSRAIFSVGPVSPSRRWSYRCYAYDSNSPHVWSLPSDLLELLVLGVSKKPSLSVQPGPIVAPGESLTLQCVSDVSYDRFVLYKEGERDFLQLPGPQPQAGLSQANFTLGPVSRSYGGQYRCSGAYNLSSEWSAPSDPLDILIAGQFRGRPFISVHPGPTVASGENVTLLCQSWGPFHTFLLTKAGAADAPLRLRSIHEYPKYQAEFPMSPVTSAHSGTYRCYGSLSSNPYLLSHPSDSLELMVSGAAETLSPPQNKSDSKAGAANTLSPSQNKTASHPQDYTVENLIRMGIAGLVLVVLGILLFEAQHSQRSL

[25] = target: T7, LILRB3 expressed on cells; test: flow cytometry on CHO-LILRB3 cells, non-linear fit of the curves of FIG. 26C
[26] = target: T8, LILRA1 expressed on cells; test: flow cytometry on CHO-LILRA1 cells (CHO-RA1), titrated antibody, labelled anti-human Fc, gMFI
[27] = target: T6, cynomolgus (monkey) LILRB2 expressed on …; test: flow cytometry on CHO-cynoLILRB2 cells, non-linear fit of the curves of FIG. 26D
[28] = target: T4, human LILRB1 expressed on cells; test: flow cytometry on CHO-LILRB1 cells (CHO-RB1), titrated antibody, labelled anti-human Fc, gMFI
[29] = target: T9, LILRA6 expressed on cells (human, UniProt Q6PI73 24-481); test: flow cytometry on CHO-LILRA6 cells, non-linear fit of the curves of FIG. 26F
T9 construct: whole, on cells; GFP-tagged; also called human LILRA6; CHO-LILRA6
T9 sequence (Q6PI73 24-481): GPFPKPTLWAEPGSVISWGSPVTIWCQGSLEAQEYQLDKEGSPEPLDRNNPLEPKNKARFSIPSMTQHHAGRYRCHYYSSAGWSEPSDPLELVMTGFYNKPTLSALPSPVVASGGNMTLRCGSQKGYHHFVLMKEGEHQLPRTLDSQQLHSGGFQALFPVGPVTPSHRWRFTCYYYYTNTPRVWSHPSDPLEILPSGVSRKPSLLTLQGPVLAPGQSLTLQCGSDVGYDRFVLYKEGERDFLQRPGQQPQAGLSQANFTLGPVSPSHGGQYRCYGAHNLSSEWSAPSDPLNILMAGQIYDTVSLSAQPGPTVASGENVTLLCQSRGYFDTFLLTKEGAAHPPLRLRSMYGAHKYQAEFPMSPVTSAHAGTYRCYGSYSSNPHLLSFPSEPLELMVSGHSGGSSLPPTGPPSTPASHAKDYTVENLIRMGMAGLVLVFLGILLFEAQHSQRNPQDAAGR

B2: D2M002-004 (antibody, human IgG1, V domains shown)
VH: EVQLQQSGAELVRPGALVKLSCKASGFNIKDYYMHWVKQRPEQGLEWIGWIDPESGNTIYDPKFQGKASMTADTSSNTAYLQLSSLTSEDTAVYYCARLDGSSYYAMDYWGQGTSVTVSS
VL: DILLTQSPASLAVSLGQRATISCRASESVDSYGNSFMHWYQQKPGQPPKLLIYLASNLESGVPARFSGSGSRTDFTLTIDPVEADDAATYYCQQNNEDPLTFGAGTKLELK
notes: Hit; also called clone #4
- Kd [1]: 1000 nM
- Kd [2]: 23.6 nM
- EC50 [4]: 0.004 µg/mL
- gMFI (max) [4]: 14300
- binding result [5]: no binding (tested: 5 µg/mL)

B3: D2M002-103 (antibody, V domains shown)
VH: QVQLVQSGAEVKKPGASVKVSCKASGYTFTRYVMHWVRQAPGQRLEWMGWINPNNEETKYSQKFKGRVTLTRDTSASTAYMELSSLRSEDTAVYYCARADLEILPYYDHARYAMDYWGQGTLVTVSS
VL: DIQMTQSPSSVSASVGDRVTITCRASENIYSHLAWYQQKPGKAPKLLVYNAKSLQSGVPSRFSGSGSGTDFTLTISSLQPEDFATYYCQHFWSTPPTFGGGTKVEIK
notes: also called P212_F01
- Kd [6]: 1.1 nM
- IC50 [7]: 0.07 µg/mL
- Kd [8]: 4.9 nM
- koff [8]: 0.00101 s⁻¹
- kon [8]: 206000 M⁻¹ s⁻¹
- IC50 [9]: 0.009 µg/mL
- Kd [10]: 0.136 nM
- Kd [11]: 1.03 nM
- IC50 (read off the curve) [12]: ~0.07 µg/mL
- EC50 [13]: 0.065 µg/mL
- EC50 (read off the curve) [14]: ~0.1 µg/mL
- EC50 [15]: 0.136 µg/mL
- Kd [16]: 0.165 nM
- koff [16]: 0.000129 s⁻¹
- kon [16]: 781000 M⁻¹ s⁻¹
- EC50 (read off the curve) [17]: ~0.06 µg/mL

Other lines, results leading:

- Kd [1]: 1000 nM
- Kd [2]: 94.4 nM
- binding result [3]: no binding (tested: 5 µg/mL)
B1: #45 (antibody, human IgG1, V domains shown)
VH: QIQLLQSGPELKKPGETVKISCKASGYTFTDYSMHWVKQAPGKGLKWMGWINTETGEPTYADDFKGRFAFSLETSASTAYLQINNLKNEDTATYFCARVVRRGYFDVWGAGTTVTVSS
VL: DIQMTQSPASLSASVGETVTITCRASGNIHNYLAWYQQKQGKSPQVLVYNAKTLADGVPSRFSGSGSGTQYSLKINSLQPEDFGSYYCQHFWSTPFTFGSGTKLEIK
notes: also called D2M002-045

- EC50 (read off the curve) [18]: ~0.06 µg/mL
- EC50 [19]: 0.059 µg/mL
- EC50 [20]: 0.0599 µg/mL
- MaxMFI [20]: 30000
- EC50 (read off the curve) [21]: ~0.1 µg/mL
- EC50 (read off the curve) [22]: ~0.06 µg/mL
- EC50 [23]: 0.0941 µg/mL
- MaxMFI [23]: 111000
- EC50 [24]: 0.157 µg/mL
- MaxMFI [24]: 20300
- EC50 [25]: 0.12 µg/mL
- EC50 (read off the curve) [26]: ~0.2 µg/mL
- EC50 [27]: 0.059 µg/mL
- EC50 (read off the curve) [28]: ~0.1 µg/mL
- EC50 [29]: 0.0473 µg/mL
B4: D2M002-103HV1 (antibody, V domains shown)
VH: B3 VH with M48I, W50Y
VL: B3 VL
notes: Humanized and optimized variant of the D2M002-002 lineage
